# Test results from article PMC9364032, “RNA induces unique tau strains and stabilizes Alzheimer’s disease seeds”.
# What was measured:
# Conditions in all cases: protein: recombinant; single strand
# [1] = target: T1, tau 2N4R full-length monomer, WT (UniProt P10636-8 1-441); test: BLI; apparent Kd, 2:1 model; kon 1.0e4 M-1 s-1, koff 1.4e-4 s-1; mean of 3; BLI (Octet, AR2G sensors, tau immobilized), nucleic acid 0.13-41 uM; buffer, salt, pH and temperature not given in the material
# [2] = target: T1, tau 2N4R full-length monomer, WT; test: BLI; apparent Kd, 2:1 model; kon 2.8e4 M-1 s-1, koff 3.4e-4 s-1; mean of 3; BLI (Octet, AR2G sensors, tau immobilized), nucleic acid 0.13-41 uM; buffer, salt, pH and temperature not given in the material
# [3] = target: T1, tau 2N4R full-length monomer, WT; test: BLI; apparent Kd, 2:1 model; kon 1.7e3 M-1 s-1, koff 4.2e-4 s-1; mean of 3; BLI (Octet, AR2G sensors, tau immobilized), nucleic acid 0.13-41 uM; buffer, salt, pH and temperature not given in the material
# T1 sequence (P10636 other isoform, or with tags, fused parts or gaps): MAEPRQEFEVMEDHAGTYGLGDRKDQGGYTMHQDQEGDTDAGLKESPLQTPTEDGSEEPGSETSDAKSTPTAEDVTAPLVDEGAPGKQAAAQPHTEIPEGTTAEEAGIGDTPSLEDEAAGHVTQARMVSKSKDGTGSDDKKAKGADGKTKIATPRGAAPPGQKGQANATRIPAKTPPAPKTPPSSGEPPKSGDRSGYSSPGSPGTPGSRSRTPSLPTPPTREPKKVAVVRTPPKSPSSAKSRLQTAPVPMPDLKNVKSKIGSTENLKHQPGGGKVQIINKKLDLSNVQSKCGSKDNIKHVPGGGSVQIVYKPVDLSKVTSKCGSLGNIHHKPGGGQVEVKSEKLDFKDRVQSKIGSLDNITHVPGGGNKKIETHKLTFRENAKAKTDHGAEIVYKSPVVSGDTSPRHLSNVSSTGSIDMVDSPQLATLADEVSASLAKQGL
binder,measurement,setting,value
AAAAAAAAAAAAAAAAAAAAAAAAAAAAAAAAAAAAAAAA (ssRNA) [PolyA 40-mer RNA],Kd,[1],20 nM
GTTAAGTCCCGAACTAGATGTGACCTAACGGTAAGAGAAT (ssDNA) [ssDNA Seq1 (random 40-mer)],Kd,[2],12 nM
UUUUUUUUUUUUUUUUUUUUUUUUUUUUUUUUUUUUUUUU (ssRNA) [PolyU 40-mer RNA],Kd,[3],254 nM
